These results are taken from US12679878B2, “CRF2 receptor agonists and their use in therapy” (SANOFI, priority 2020, dated 2026).

Starred links: 1 amine or outer side, 2 acyl side, 3 side chain; linkers in the order of their positions; H or OH if unused. Groups on a side chain read outwards from the residue. No end group written: not given here. *: point of attachment. C18 diacid = O=C(O)CCCCCCCCCCCCCCCCC(=O)*; γGlu = O=C(O)[C@H](CCC(=O)[*:2])N[*:1]; Palmitoyl = CCCCCCCCCCCCCCCC(=O)*; AEEA = NCCOCCOCC(=O)O

The experiment addresses human corticotropin-releasing factor 2α (CRF2 α receptor) (human), Q13324. The experiment in a line: cell-based or functional assay.

Sequence of human corticotropin-releasing factor 2α (CRF2 α receptor) (human), Q13324 (Q13324 20-411): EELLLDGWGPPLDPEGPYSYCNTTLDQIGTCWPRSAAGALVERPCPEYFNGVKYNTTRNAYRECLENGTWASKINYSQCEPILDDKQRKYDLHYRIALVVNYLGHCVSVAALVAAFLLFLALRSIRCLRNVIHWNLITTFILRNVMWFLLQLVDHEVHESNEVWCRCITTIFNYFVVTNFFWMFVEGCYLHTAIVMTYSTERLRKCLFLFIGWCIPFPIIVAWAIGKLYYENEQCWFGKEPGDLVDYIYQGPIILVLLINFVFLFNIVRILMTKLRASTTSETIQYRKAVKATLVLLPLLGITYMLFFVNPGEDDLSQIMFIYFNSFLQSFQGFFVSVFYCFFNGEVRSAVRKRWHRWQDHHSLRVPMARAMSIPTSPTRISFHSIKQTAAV

B1: SEQ ID NO: 68 (peptide)
peptide: IVLSLDVPIKLK([AEEA-AEEA-γGlu-C18 diacid])QILLEQERQKKQREQAETNKQILAQV-NH2
modifications: N-terminus assumed
SMILES: CC[C@H](C)[C@H](N)C(=O)N[C@H](C(=O)N[C@@H](CC(C)C)C(=O)N[C@@H](CO)C(=O)N[C@@H](CC(C)C)C(=O)N[C@@H](CC(=O)O)C(=O)N[C@H](C(=O)N1CCC[C@H]1C(=O)N[C@H](C(=O)N[C@@H](CCCCN)C(=O)N[C@@H](CC(C)C)C(=O)N[C@@H](CCCCNC(=O)COCCOCCNC(=O)COCCOCCNC(=O)CC[C@H](NC(=O)CCCCCCCCCCCCCCCCC(=O)O)C(=O)O)C(=O)N[C@@H](CCC(N)=O)C(=O)N[C@H](C(=O)N[C@@H](CC(C)C)C(=O)N[C@@H](CC(C)C)C(=O)N[C@@H](CCC(=O)O)C(=O)N[C@@H](CCC(N)=O)C(=O)N[C@@H](CCC(=O)O)C(=O)N[C@@H](CCCNC(=N)N)C(=O)N[C@@H](CCC(N)=O)C(=O)N[C@@H](CCCCN)C(=O)N[C@@H](CCCCN)C(=O)N[C@@H](CCC(N)=O)C(=O)N[C@@H](CCCNC(=N)N)C(=O)N[C@@H](CCC(=O)O)C(=O)N[C@@H](CCC(N)=O)C(=O)N[C@@H](C)C(=O)N[C@@H](CCC(=O)O)C(=O)N[C@H](C(=O)N[C@@H](CC(N)=O)C(=O)N[C@@H](CCCCN)C(=O)N[C@@H](CCC(N)=O)C(=O)N[C@H](C(=O)N[C@@H](CC(C)C)C(=O)N[C@@H](C)C(=O)N[C@@H](CCC(N)=O)C(=O)N[C@H](C(N)=O)C(C)C)[C@@H](C)CC)[C@@H](C)O)[C@@H](C)CC)[C@@H](C)CC)C(C)C)C(C)C
In turn, B1 returned an EC50 [nM], 0% HSA of 0.2 nM.

B2: SEQ ID NO: 4 (peptide)
peptide: IVLSLDVPIGLK([γGlu-Palmitoyl])QKLLKQEKQEKEKQQAETNAKILAQV-NH2
modifications: N-terminus assumed
SMILES: CCCCCCCCCCCCCCCC(=O)N[C@@H](CCC(=O)NCCCC[C@H](NC(=O)[C@H](CC(C)C)NC(=O)CNC(=O)[C@@H](NC(=O)[C@@H]1CCCN1C(=O)[C@@H](NC(=O)[C@H](CC(=O)O)NC(=O)[C@H](CC(C)C)NC(=O)[C@H](CO)NC(=O)[C@H](CC(C)C)NC(=O)[C@@H](NC(=O)[C@@H](N)[C@@H](C)CC)C(C)C)C(C)C)[C@@H](C)CC)C(=O)N[C@@H](CCC(N)=O)C(=O)N[C@@H](CCCCN)C(=O)N[C@@H](CC(C)C)C(=O)N[C@@H](CC(C)C)C(=O)N[C@@H](CCCCN)C(=O)N[C@@H](CCC(N)=O)C(=O)N[C@@H](CCC(=O)O)C(=O)N[C@@H](CCCCN)C(=O)N[C@@H](CCC(N)=O)C(=O)N[C@@H](CCC(=O)O)C(=O)N[C@@H](CCCCN)C(=O)N[C@@H](CCC(=O)O)C(=O)N[C@@H](CCCCN)C(=O)N[C@@H](CCC(N)=O)C(=O)N[C@@H](CCC(N)=O)C(=O)N[C@@H](C)C(=O)N[C@@H](CCC(=O)O)C(=O)N[C@H](C(=O)N[C@@H](CC(N)=O)C(=O)N[C@@H](C)C(=O)N[C@@H](CCCCN)C(=O)N[C@H](C(=O)N[C@@H](CC(C)C)C(=O)N[C@@H](C)C(=O)N[C@@H](CCC(N)=O)C(=O)N[C@H](C(N)=O)C(C)C)[C@@H](C)CC)[C@@H](C)O)C(=O)O
Consider B2, for which the EC50 [nM], 0% HSA came out at 0.04 nM.
